Laboratory results as given in patent publication US20260053882A1 (TRUSTEES OF PRINCETON UNIVERSITY, published 2026).
Positions count from the first letter of the chain named. Numbers in names are those of the source.

B1: αHER2-AF594 DARPin (αHER2-HA-Cys Alexa Fluor 594 conjugate) (designed binder)
chain: DLGKKLLEAARAGQDDEVRILMANGADVNAKDEYGLTPLYLATAHGHLEIVEVLLKNGADVNAVDAIGFTPLHLAAFIGHLEIAEVLLKHGADVNAQDKFGKTAFDISIGNGNEDLAEILQKLNGGYPYDVPDYAGGSC
modifications: Alexa Fluor 594 C5 maleimide on the C-terminal Cys
notes: His6-SUMO tag cut off with Ulp1; range derived by counting; also called targeting DARPin labeled with AF594
B2: αHER2-SpyN-eNrdJ-1N^cage Cys1-alkylated (other)
chain: DYKDDDDKDLGKKLLEAARAGQDDEVRILMANGADVNAKDEYGLTPLYLATAHGHLEIVEVLLKNGADVNAVDAIGFTPLHLAAFIGHLEIAEVLLKHGADVNAQDKFGKTAFDISIGNGNEDLAEILQKLNGSTSGSVTTLSGLSGEQGPSGDMTTEEDSATHIKFSKRDEDGRELAGATMELRDSSGKTISTWISDGHVKDFYLYPGKYCLVGSSEIITRNYGKTTIKEVVEIFDNDKNIQVLAFNTHTDNIEWAPIKAAQLTRPNAELVELEIDTLHGVKTIRVTPDHPVYTKNRGYVRADELTDDDELVVAIENLYGDEVNGYFQGMEAETYIGKLKSRAIVSNEDTYDIQTSTHNFFAND
modifications: Cys1 of eNrdJ-1N^cage alkylated with iodoacetamide (residue 331 of the printed SEQ ID NO 26)
notes: His6-SUMO tag cut off with Ulp1; range derived by counting; also called SpyN-αHER2 with Cys1-alkylated NrdJ-1N^cage
B3: SpyTag003-AF594 (His6-SpyTag003-SUMO-Cys Alexa Fluor 594 conjugate) (other)
chain: MGSSHHHHHHSSGLVPRGSRGVPHIVMVDAYKRYKGSGESGMSDSEVNQEAKPEVKPEVKPETHINLKVSDGSSEIFFKIKKTTPLRRLMEAFAKRQGKEMDSLRFLYDGIRIQADQTPEDLDMEDNDIIEAHREQIGC
modifications: Alexa Fluor 594 C5 maleimide on the C-terminal Cys
notes: the SUMO is internal (His6-SpyTag003-SUMO-Cys) and is not cut off; also called fluorescently labeled probe
B4: SpyTag003-DNP (His6-SpyTag003-SUMO-Cys dinitrophenol conjugate) (other)
chain: B3 chain
modifications: 2,4-dinitrophenyl-maleimide on the C-terminal Cys
notes: Conjugate of SpyTag003-Cys; also called SpyTag003 2,4-dinitrolphenol conjugate; dinitrophenyl probe
B5: SpyTag003-biotin (His6-SpyTag003-SUMO-Cys biotin conjugate) (other)
chain: B3 chain
modifications: biotin maleimide on the C-terminal Cys
notes: Conjugate of SpyTag003-Cys; also called biotinylated probe
B6: SpyTag003^D117A-AF594 (His6-SpyTag003^D117A-SUMO-Cys Alexa Fluor 594 conjugate) (other)
chain: B3 chain with D29A
modifications: Alexa Fluor 594 C5 maleimide on the C-terminal Cys
B7: reconstituted SpyCatcher003 spliced from SpyN-αHER2 and SpyC-αEGFR (FLAG-αHER2-SpyCatcher003-αEGFR-Myc, NrdJ-1 splice product) (other)
chain: DYKDDDDKDLGKKLLEAARAGQDDEVRILMANGADVNAKDEYGLTPLYLATAHGHLEIVEVLLKNGADVNAVDAIGFTPLHLAAFIGHLEIAEVLLKHGADVNAQDKFGKTAFDISIGNGNEDLAEILQKLNGSTSGSVTTLSGLSGEQGPSGDMTTEEDSATHIKFSKRDEDGRELAGATMELRDSSGKTISTWISDGHVKDFYLYPGKYSFVETAAPDGYEVATPIEFTVNEDGQVTVDGEATEGDAHTGSTSGSDLGKKLLEAARAGQDDEVRILMANGADVNADDTWGWTPLHLAAYQGHLEIVEVLLKNGADVNAYDYIGWTPLHLAADGHLEIVEVLLKNGADVNASDYIGDTPLHLAAHNGHLEIVEVLLKHGADVNAQDKFGKTAFDISIDNGNEDLAEILQKLNEQKLISEEDL
notes: On cells it is held by its two DARPins on HER2 and EGFR; also called reconstituted SpyCather003; spliced SpyCatcher003
B8: reconstituted SpyCatcher003 with K31E, spliced from SpyN-αHER2(K31E) and SpyC-αEGFR (other)
chain: B7 chain with K169E
notes: K31 is counted on SpyCatcher003; ranges derived as for m26; also called defective POI; defective output
B9: αEpCAM-AF594 DARPin (αEpCAM-HA-Cys Alexa Fluor 594 conjugate) (designed binder)
chain: DLGKKLLEAARAGQDDEVRILVANGADVNAYFGTTPLHLAAAHGRLEIVEVLLKNGADVNAQDVWGITPLHLAAYNGHLEIVEVLLKYGADVNAHDTRGWTPLHLAAINGHLEIVEVLLKNVADVNAQDRSGKTPFDLAIDNGNEDIAEVLQKAAKLNGGYPYDVPDYAGGSC
modifications: Alexa Fluor 594 C5 maleimide on the C-terminal Cys
notes: as for B1
B10: SpyTag003-APEX2 (His6-SpyTag003-HA-APEX2) (other)
chain: MGSSHHHHHHSSGLVPRGSRGVPHIVMVDAYKRYKGSGESGYPYDVPDYASSGGKSYPTVSADYQDAVEKAKKKLRGFIAEKRCAPLMLRLAFHSAGTFDKGTKTGGPFGTIKHPAELAHSANNGLDIAVRLLEPLKAEFPILSYADFYQLAGVVAVEVTGGPKVPFHPGREDKPEPPPEGRLPDPTKGSDHLRDVFGKAMGLTDQDIVALSGGHTIGAAHKERSGFEGPWTSNPLIFDNSYFTELLSGEKEGLLQLPSDKALLSDPVFRPLVDKYAADEDAFFADYAEAHQKLSELGFADA
notes: Not SUMO-tagged

How the values were obtained:
[1] = molecular target: T1, HER2, endogenous on human cell lines (human, UniProt P04626 23-1255); assay: flow cytometry, 100 nM DARPin-AF594 on human cancer cell lines
T1 construct: whole, on cells

[2] = molecular target: B3; assay: confocal microscopy, K562 HER2+/EGFR+ cells; splicing-dead SpyN-αHER2 together with SpyC-αEGFR
[3] = molecular target: B7; assay: confocal microscopy, K562 HER2+/EGFR+ cells treated with SpyN-αHER2 and SpyC-αEGFR (eNrdJ-1^cage), 100 nM probe
Experimental: Confocal microscopy of K562 cell lines treated with SMART-SpyCatcher for [HER2 AND EGFR] operation. K562^{HER2+/EGFR+} cell line were assayed for SMART-SpyCatcher activation and analyzed by confocal microscopy.
(§1) Suspension cell lines: The K562 cell lines were cultured were individually. For an experiment, the culture of interest was spun down and counted to estimate the cell concentration. Then approximately 200,000 cells were isolated, washed twice with DPBS, 1% w/v BSA, 2 mM CaCl₂) and suspended in 0.4 mL of the buffer. To the sample was added the specified SMART-SpyCatcher at the specified concentration by adding each individual component (SpyN and SpyC) from stock solutions. The sample was incubated for 2 hr, 37° C., 5% CO₂ to allow for actuation. The sample was then cooled at room temperature for 10 min before adding the specified SpyTag003 conjugate at 100 nM. […] The cells were then washed twice with cold DPBS, 1% w/v BSA, 2 mM CaCl₂) and incubated on ice until further analysis by confocal microscopy or flow-cytometry. Samples subjected to SDS-PAGE/western blotting were washed twice with DPBS alone to remove excess BSA.

[4] = molecular target: B7; assay: confocal microscopy, K562 HER2+/EGFR+ cells treated with SMART-SpyCatcher, 100 nM SpyTag003-DNP
Experimental: The anti-DNP antibody was detected using a goat anti-rabbit IgG AF594 conjugate.
Suspension cell lines: The K562 cell lines were cultured were individually. For an experiment, the culture of interest was spun down and counted to estimate the cell concentration. Then approximately 200,000 cells were isolated, washed twice with DPBS, 1% w/v BSA, 2 mM CaCl₂) and suspended in 0.4 mL of the buffer. To the sample was added the specified SMART-SpyCatcher at the specified concentration by adding each individual component (SpyN and SpyC) from stock solutions. The sample was incubated for 2 hr, 37° C., 5% CO₂ to allow for actuation. The sample was then cooled at room temperature for 10 min before adding the specified SpyTag003 conjugate at 100 nM. […] The cells were then washed twice with cold DPBS, 1% w/v BSA, 2 mM CaCl₂) and incubated on ice until further analysis by confocal microscopy or flow-cytometry.

[5] = molecular target: B7; assay: western blot of K562 HER2+/EGFR+ cells treated with SMART-SpyCatcher
Experimental: (§2) Samples were run on an SDS-PAGE gel. […] The membrane was washed 3×5 min with TBS-T and incubated with primary antibodies at specified dilution (Table 4) on an orbital shaker for 1 hr at room temperature or alternatively overnight at 4° C. After washing 3×5 min with TBS-T, the IRDye secondary antibody or alternatively IRDye Streptavidin were applied for 30 min to 1 hour at room temperature, before imaging on a Li-Cor Odyssey imager (Li-Cor).
as §1

[6] = molecular target: B7; assay: labeled mutant probe on K562 HER2+/EGFR+ cells treated with SMART-SpyCatcher, washed, AF594 signal
[7] = molecular target: B3; assay: in vitro splicing of the C76V FKBP/FRB precursors with rapamycin, reaction with 2 µM SpyTag003-AF594, western blot
Experimental: as §2
Splicing was initiated either by addition of 8 μL, 50 µM rapamycin (DMSO) or 1 μL, 40×TEV protease. Buffered solution was added to compensate for volume differences when reaction components were omitted in control reactions. The reaction was left for 24 hr at 37° C. before further analysis by SDS-PAGE followed by western blotting.

[8] = molecular target: B3; assay: flow cytometry, K562 HER2+/EGFR+ cells, SpyN-αHER2(K31E) + SpyC-αEGFR
[9] = molecular target: T2, Epithelial Cell Adhesion Molecule (EpCAM), endogenous on human cell lines (human, UniProt P16422 24-314); assay: flow cytometry, 100 nM DARPin-AF594 on human cancer cell lines
T2 construct: whole, on cells
T2 sequence (looked up): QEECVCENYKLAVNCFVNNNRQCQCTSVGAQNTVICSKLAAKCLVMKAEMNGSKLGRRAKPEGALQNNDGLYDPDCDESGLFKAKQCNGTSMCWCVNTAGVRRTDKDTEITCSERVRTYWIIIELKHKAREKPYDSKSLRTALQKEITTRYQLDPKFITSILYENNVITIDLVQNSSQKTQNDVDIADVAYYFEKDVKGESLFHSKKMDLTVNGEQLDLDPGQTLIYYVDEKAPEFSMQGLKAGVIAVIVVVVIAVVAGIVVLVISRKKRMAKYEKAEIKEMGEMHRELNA

[10] = molecular target: B7; assay: western blot of K562 HER2+/EGFR+ cells treated with SMART-SpyCatcher and 300 nM SpyTag003-APEX2
Experimental: To the sample was added the specified SMART-SpyCatcher at the specified concentration by adding each individual component (SpyN and SpyC) from stock solutions. The sample was incubated for 2 hr, 37° C., 5% CO₂ to allow for actuation. The sample was then cooled at room temperature for 10 min before adding the specified SpyTag003 conjugate at 100 nM. […] The cells were then washed twice with cold DPBS, 1% w/v BSA, 2 mM CaCl₂) and incubated on ice until further analysis by confocal microscopy or flow-cytometry. Samples subjected to SDS-PAGE/western blotting were washed twice with DPBS alone to remove excess BSA. […] Adherent cell lines: The various adherent cell lines were cultured individually. Plated cells were lifted using trypsin, washed with complete medium and counted to estimate the cell concentration. Then 200,000 cells were seeded in a 24 well plate format and allowed 24 hr recovery and attachment in complete media. The assay protocol for SMART-SpyCatcher actuation and SpyTag003 recruitment follows that outlined above for the suspension cell lines. Post-treatment, the adherent cells were washed twice with DPBS, 1% w/v BSA, 2 mM CaCl₂) and then lifted with a non-enzymatic solution of DPBS, 1% w/v BSA, 50 mM EDTA and incubated on ice before analysis by flow-cytometry. For SDS-PAGE/western blotting cells were lifted as described and then washed with DPBS alone to remove excess BSA. […]

B1
binding result [1]: binds

B2
binding result [2]: no binding (tested: 100 nM)

B3
binding result [3]: binds

B4
binding result [4]: binds

B5
binding result [5]: binds

B6
binding result [6]: no binding (tested: 100 nM)

B7
binding result [7]: binds

B8
binding result [8]: no binding (tested: 100 nM)

B9
binding result [9]: binds

B10
binding result [10]: binds
